Here are results for 13 molecules from patent US20130236462A1 (Sanofi, published 2013).

For orientation: Kd means the constant that tells how readily two partners part at equilibrium. In general, koff refers to a measure of how fast the partners let go of each other. The term kon denotes the rate constant with which the complex forms.

Assay [1] concerns the target T1, recombinant human IL-13 (human, UniProt P35225 35-146, limits assumed). The experiment in a line: SPR Biacore 3000, antibody captured, cytokine in solution. An excerpt: (§1) Surface plasmon resonance technology on a Biacore 3000 (GE Healthcare) was used for detailed kinetic characterisation of purified anibodics. A capture assay using a species specific antibody (e.g. human-Fc specific MAB 1302, Chemicon) for capture and orientation of the investigated antibodies was used. The capture antibody was immobilized via primary amine groups (10000 RU) on a research grade CM5 chip (GE Life Sciences) using standard procedures. The analysed antibody was captured with an adjusted RU value that would result in maximal analyte binding of 30 RU at a flow rate of 10 μl/min. Binding kinetics were measured against recombinant human IL-4 and IL-13 over a concentration range between 0 to 50 nM in HBS EP (10 mM HEPES pH 7.4, 150 mM NaCl, 3 mM EDTA, 0.005% Surfactant P20) at a flow rate of 30 μl/min. Chip surfaces were regenerated with 10 mM glycine pH2.5. Kinetic parameters were analysed and calculated in the BIAevaluation program package using a flow cell without captured antibody as reference. To investigate additive binding of both antigens, a wizard-driven co-inject method has been applied in which one antigen was injected immediately followed by the antigen mix of IL-13/IL-4.

In assay [2] the target is T1, recombinant human IL-13. The experiment in a line: cell-based or functional assay.
Assay [3] deals with T2, recombinant human IL-4 (human, UniProt P05112 25-153).
T2 sequence (looked up): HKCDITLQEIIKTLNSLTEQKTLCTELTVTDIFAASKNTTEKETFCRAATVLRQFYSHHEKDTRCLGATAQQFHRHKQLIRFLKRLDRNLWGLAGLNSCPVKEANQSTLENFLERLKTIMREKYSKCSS
Put plainly: cell-based or functional assay.

For assay [4], the target named is T2, recombinant human IL-4. Put plainly: SPR Biacore 3000, antibody captured, cytokine in solution.
Excerpt: as §1
Binding and neutralization activity assays were performed as described in the previous Examples.
On the technique in general: SPR reads the build-up and loss of mass on a sensor chip optically.

The target of assay [5] is human IL-13 R112Q variant (human) (UniProt P35225). The description is as above.
Chain of human IL-13 R112Q variant (human) (P35225 33-146, stated change not applied): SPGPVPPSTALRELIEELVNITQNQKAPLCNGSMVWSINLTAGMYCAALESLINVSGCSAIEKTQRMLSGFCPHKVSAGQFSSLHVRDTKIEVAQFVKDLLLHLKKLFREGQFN
Assay [6] deals with T2, recombinant human IL-4. The description is as above.
Excerpt: as §1
The source holds these as a separate data set.

Assay [7] deals with T2, recombinant human IL-4. Put plainly: cell-based or functional assay. The source holds these as a separate data set.

Read-outs that look alike come from different tables or passages of the source.

T1 sequence (P35225 35-146 limits assumed): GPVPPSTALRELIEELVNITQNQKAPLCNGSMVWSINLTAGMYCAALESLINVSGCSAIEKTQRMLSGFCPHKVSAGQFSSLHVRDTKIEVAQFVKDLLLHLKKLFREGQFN

Regarding “chimeric anti-IL-13 clone B-B13 monoclonal antibody”, in assay [1], the Kd was determined as 0.261 nM, the koff amounted to 0.000461 s⁻¹ and the on-rate constant (kon) amounted to 1.76e+06 M⁻¹ s⁻¹. Further, in assay [2], the IC50, inhibition of IL-13 induced TF-1 cell proliferation turned out to be 7.4 nM.
On to “mouse anti-IL-13 monoclonal antibody clone B-B13”, for which, in assay [1], the Kd was 0.563 nM, the koff is 0.000373 s⁻¹ and the association rate constant (kon) worked out at 864000 M⁻¹ s⁻¹.

B1: huTBTI3_1_1 (bispecific antibody, IgG4)
VH: EVQLKESGPGLVAPGGSLSITCTVSGFSLTDSSINWVRQPPGKGLEWLGMIWGDGRIDYADALKSRLSISKDSSKSQVFLEMTSLRTDDTATYYCARDGYFPYAMDFWGQGTSVTVSSGGGGSGGGGSQVQLQQSGPELVKPGASVKISCKASGYSFTSYWIHWIKQRPGQGLEWIGMIDASDGETRLNQRFQGRATLTVDESTSTAYMQLRSPTSEDSAVYYCTRLKEYGNYDSFYFDVWGAGTLVTVSS
VL: DIVLTQSPASLAVSLGQRATISCRASESVDSYGQSYMHWYQQKAGQPPKLLIYLASNLESGVPARFSGSGSRTDFTLTIDPVQAEDAATYYCQQNAEDSRTFGGGTKLEIKGGGGSGGGGSDIQMTQSPASLSVSVGDTITLTCHASQNIDVWLSWFQQKPGNIPKLLIYKASNLHTGVPSRFSGSGSGTGFTLTISSLQPEDIATYYCQQAHSYPFTFGGGTKLEIK
notes: Dual variable domain IgG4: B-B13 VL3 × VH2 outer, 8D4-8 VL1 × VH2 inner, (G4S)2 linkers; heterotetramer of two heavy and two light chains; copies: 2 + 2
As for B1, the “IC50 (nM) in IL-4 assay (TF-1 cell proliferation)” value in assay [3] worked out at 1.7 nM. Besides, in assay [4], the Kd was 0.148 nM, the koff was determined as 0.000378 s⁻¹ and the kon was determined as 2.55e+06 M⁻¹ s⁻¹. In assay [5], the Kd is 0.121 nM, the koff was 0.000118 s⁻¹ and the kon is 974000 M⁻¹ s⁻¹.

B2: huTBTI3_2_2 (bispecific antibody, IgG4)
VH: EVQLKESGPGLVAPGGSLSITCTVSGFSLTDSSINWVRQPPGKGLEWLGMIWGDGRIDYADALKSRLSISKDSSKSQVFLEMTSLRTDDTATYYCARDGYFPYAMDFWGQGTSVTVSSGGGGSGGGGSQVQLQQSGPELVKPGASVKISCKASGYSFTSYWIHWIKQRPGQGLEWIGMIDPSDGETRLNQRFQGRATLTVDESTSTAYMQLRSPTSEDSAVYYCTRLKEYGNYDSFYFDVWGAGTLVTVSS
VL: DIVLTQSPASLAVSLGQRATISCRASESVDSYGNSYMHWYQQKAGQPPKLLIYLASNLESGVPARFSGSGSRTDFTLTIDPVQAEDAATYYCQQNNEDSRTFGGGTKLEIKGGGGSGGGGSDIQMTQSPASLSVSVGDTITLTCHASQNIDVWLSWFQQKPGNIPKLLIYKASNLHTGVPSRFSGSGSGTGFTLTISSLQPEDIATYYCQQAHSYPFTFGGGTKLEIK
notes: Dual variable domain IgG4: B-B13 VL2 × VH2 outer, 8D4-8 VL1 × VH1 inner, (G4S)2 linkers; heterotetramer of two heavy and two light chains; copies: 2 + 2
As to B2, in assay [4], the Kd stood at 0.0332 nM, the koff was found to be 0.000132 s⁻¹ and the kon came to 3.96e+06 M⁻¹ s⁻¹.

B3: huTBTI3_1_2 (bispecific antibody, IgG4)
VH: EVQLKESGPGLVAPGGSLSITCTVSGFSLTDSSINWVRQPPGKGLEWLGMIWGDGRIDYADALKSRLSISKDSSKSQVFLEMTSLRTDDTATYYCARDGYFPYAMDFWGQGTSVTVSSGGGGSGGGGSQVQLQQSGPELVKPGASVKISCKASGYSFTSYWIHWIKQRPGQGLEWIGMIDASDGETRLNQRFQGRATLTVDESTSTAYMQLRSPTSEDSAVYYCTRLKEYGNYDSFYFDVWGAGTLVTVSS
VL: DIVLTQSPASLAVSLGQRATISCRASESVDSYGNSYMHWYQQKAGQPPKLLIYLASNLESGVPARFSGSGSRTDFTLTIDPVQAEDAATYYCQQNNEDSRTFGGGTKLEIKGGGGSGGGGSDIQMTQSPASLSVSVGDTITLTCHASQNIDVWLSWFQQKPGNIPKLLIYKASNLHTGVPSRFSGSGSGTGFTLTISSLQPEDIATYYCQQAHSYPFTFGGGTKLEIK
notes: Dual variable domain IgG4: B-B13 VL2 × VH2 outer, 8D4-8 VL1 × VH2 inner, (G4S)2 linkers; heterotetramer of two heavy and two light chains; copies: 2 + 2
For B3, in assay [4], the Kd came out at 0.138 nM, the dissociation rate constant (koff) was 0.000308 s⁻¹ and the kon came out at 2.23e+06 M⁻¹ s⁻¹.

B4: huB-B13 VL2 × VH2 (antibody, V domains shown)
VH: EVQLKESGPGLVAPGGSLSITCTVSGFSLTDSSINWVRQPPGKGLEWLGMIWGDGRIDYADALKSRLSISKDSSKSQVFLEMTSLRTDDTATYYCARDGYFPYAMDFWGQGTSVTVSS
VL: DIVLTQSPASLAVSLGQRATISCRASESVDSYGNSYMHWYQQKAGQPPKLLIYLASNLESGVPARFSGSGSRTDFTLTIDPVQAEDAATYYCQQNNEDSRTFGGGTKLEIK
notes: Expressed as a whole antibody, purified on Protein A; also called humanized B-B13 VL2xVH2
As to B4, in assay [1], the Kd was found to be 0.157 nM, the koff was 0.000177 s⁻¹ and the association rate constant (kon) was 1.13e+06 M⁻¹ s⁻¹.

B5: huB-B13 VL1 × VH1 (antibody, V domains shown)
VH: EVQLKESGPGLVAPGGSLSITCTVSGFSLTDSSINWVRQPPGKGLEWLGMIWGDGRIDYNDALKSRLSISKDNSKSQVFLEMNSLRTDDTATYYCARDGYFPYAMDFWGQGTSVTVSS
VL: DIVLTQSPASLAVSLGQRATISCRASESVDSYGNSYMHWYQQKAGQPPKLLIYLASNLESGVPARFSGSGSRTDFTLTIDPVQAEDAATYYCQQNNEDPRTFGGGTKLEIK
notes: Expressed as a whole antibody, purified on Protein A; also called humanized B-B13 VL1xVH1
For the molecule B5, in assay [1], the Kd amounted to 0.396 nM, the off-rate constant (koff) was determined as 0.000691 s⁻¹ and the kon stood at 1.74e+06 M⁻¹ s⁻¹. The “IC50, inhibition of IL-13 induced TF-1 cell proliferation” value in assay [2] was found to be 15.7 nM.

B6: huB-B13 VL3 × VH3 (antibody, V domains shown)
VH: EVQLKESGPGLVAPGGSLSITCTVSGFSLTDSSINWVRQPPGKGLEWLGMIWGDGRIDYADALKSRLSISKDSSKSQVFLEMTSLRTDDTATYYCARDGRFPYAMKFWGQGTSVTVSS
VL: DIVLTQSPASLAVSLGQRATISCRASESVDSYGQSYMHWYQQKAGQPPKLLIYLASNLESGVPARFSGSGSRTDFTLTIDPVQAEDAATYYCQQNAEDSRTFGGGTKLEIK
notes: Expressed as a whole antibody, purified on Protein A; also called humanized B-B13 VL3xVH3
B6: in assay [1], the Kd came to 0.189 nM, the koff is 0.000405 s⁻¹ and the association rate constant (kon) is 2.14e+06 M⁻¹ s⁻¹.

B7: huB-B13 VL1 × VH3 (antibody, V domains shown)
VH: EVQLKESGPGLVAPGGSLSITCTVSGFSLTDSSINWVRQPPGKGLEWLGMIWGDGRIDYADALKSRLSISKDSSKSQVFLEMTSLRTDDTATYYCARDGRFPYAMKFWGQGTSVTVSS
VL: DIVLTQSPASLAVSLGQRATISCRASESVDSYGNSYMHWYQQKAGQPPKLLIYLASNLESGVPARFSGSGSRTDFTLTIDPVQAEDAATYYCQQNNEDPRTFGGGTKLEIK
notes: Expressed as a whole antibody, purified on Protein A; also called humanized B-B13 VL1xVH3
For the molecule B7, in assay [1], the Kd was found to be 0.205 nM, the koff worked out at 0.000395 s⁻¹ and the kon was 1.93e+06 M⁻¹ s⁻¹.

B8: huB-B13 VL3 × VH1 (antibody, V domains shown)
VH: EVQLKESGPGLVAPGGSLSITCTVSGFSLTDSSINWVRQPPGKGLEWLGMIWGDGRIDYNDALKSRLSISKDNSKSQVFLEMNSLRTDDTATYYCARDGYFPYAMDFWGQGTSVTVSS
VL: DIVLTQSPASLAVSLGQRATISCRASESVDSYGQSYMHWYQQKAGQPPKLLIYLASNLESGVPARFSGSGSRTDFTLTIDPVQAEDAATYYCQQNAEDSRTFGGGTKLEIK
notes: Expressed as a whole antibody, purified on Protein A; also called humanized B-B13 VL3xVH1
For the molecule B8, in assay [1], the Kd stood at 0.172 nM, the koff came out at 0.000333 s⁻¹ and the kon was 1.93e+06 M⁻¹ s⁻¹. For the same molecule, the “IC50, inhibition of IL-13 induced TF-1 cell proliferation” value in assay [2] worked out at 5.2 nM.

B9: Hu8D4-8 VL1 × VH2 (antibody, V domains shown)
VH: QVQLQQSGPELVKPGASVKISCKASGYSFTSYWIHWIKQRPGQGLEWIGMIDASDGETRLNQRFQGRATLTVDESTSTAYMQLRSPTSEDSAVYYCTRLKEYGNYDSFYFDVWGAGTLVTVSS
VL: DIQMTQSPASLSVSVGDTITLTCHASQNIDVWLSWFQQKPGNIPKLLIYKASNLHTGVPSRFSGSGSGTGFTLTISSLQPEDIATYYCQQAHSYPFTFGGGTKLEIKR
notes: Expressed as a whole antibody, purified on Protein A; also called humanized 8D4-8 VL1xVH2
With B9, in assay [6], the Kd was 0.0139 nM, the dissociation rate constant (koff) stood at 0.000348 s⁻¹ and the on-rate constant (kon) was found to be 2.57e+07 M⁻¹ s⁻¹. In assay [7], the “IC50, inhibition of IL-4 induced TF-1 cell proliferation” value stood at 135 pM.

B10: chimeric anti-IL-4 clone 8D4-8 monoclonal antibody (antibody, V domains shown)
VH: QVQLQQSGPQLVRPGTSVKISCKASGYSFTSYWIHWIKQRPGQGLEWIGMIDPSDGETRLNQRFKDRATLTVDRSSSTAYMQLRSPTSEDSALYYCTRLKEYGNYDSFYFDVWGAGTTVTVSS
VL: DIQMNQSPASLSVSLGDTITLTCHASQNIDVWLSWFQQSPGNIPKLLIYKASNLHTGVPSRFSGSGSGTGFTLTISSLQPEDIATYYCQQAHSYPFTFGGGTKLEIK
notes: Murine variable domains fused to IGHG1 and IGKC; also called ch8D4-8 WT; chimeric 8D4-8
Take B10: in assay [6], the Kd worked out at 0.00783 nM, the koff was 0.000195 s⁻¹ and the kon was 2.49e+07 M⁻¹ s⁻¹. Moreover, the “IC50, inhibition of IL-4 induced TF-1 cell proliferation” value in assay [7] stood at 84 pM.

B11: mouse anti-IL-4 monoclonal antibody clone 8D4-8 (antibody, V domains shown)
VH: QVQLQQSGPQLVRPGTSVKISCKASGYSFTSYWIHWIKQRPGQGLEWIGMIDPSDGETRLNQRFKDRATLTVDRSSSTAYMQLRSPTSEDSALYYCTRLKEYGNYDSFYFDVWGAGTTVTVSS
VL: DIQMNQSPASLSVSLGDTITLTCHASQNIDVWLSWFQQSPGNIPKLLIYKASNLHTGVPSRFSGSGSGTGFTLTISSLQPEDIATYYCQQAHSYPFTFGGGTKLEIKR
notes: Bought mouse monoclonal antibody (Biozol / BioLegend); also called murine 8D4-8
As to B11, in assay [6], the dissociation constant Kd is 0.0377 nM, the koff was determined as 0.000217 s⁻¹ and the kon turned out to be 5.57e+06 M⁻¹ s⁻¹. Besides, the “IC50, inhibition of IL-4 induced TF-1 cell proliferation” value in assay [7] was 97 pM.
